The target in assay [1] is T1, penta-his-tagged hRANKL (human).
T1 construct: also called his-hRANKL; not shown: penta-his tag
T1 chain: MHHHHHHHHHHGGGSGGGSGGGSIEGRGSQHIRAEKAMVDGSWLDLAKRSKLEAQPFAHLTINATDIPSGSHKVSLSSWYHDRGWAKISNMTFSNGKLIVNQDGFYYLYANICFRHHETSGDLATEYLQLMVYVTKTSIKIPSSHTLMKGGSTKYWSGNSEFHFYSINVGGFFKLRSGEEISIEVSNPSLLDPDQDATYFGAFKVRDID
Put plainly: competition ELISA: 150 pM his-hRANKL pre-mixed with antibody, free RANKL detected on hRANK-hFc plate. The protocol:
(§1) Briefly, hRANK-hFc protein was coated on a 96-well plate in PBS buffer overnight at 4° C. at 2 μg/ml, and nonspecific binding was blocked with BSA, to form a hRANK-hFc surface.
For orientation: An ELISA detects its analyte on a solid surface through an enzyme-linked reagent.

In assay [2] the target is T2, human RANKL (receptor activator of NF-κB ligand) (human, UniProt O14788 140-317, limits assumed).
T2 construct: also called hRANKL; hRANKL native trimer
T2 sequence: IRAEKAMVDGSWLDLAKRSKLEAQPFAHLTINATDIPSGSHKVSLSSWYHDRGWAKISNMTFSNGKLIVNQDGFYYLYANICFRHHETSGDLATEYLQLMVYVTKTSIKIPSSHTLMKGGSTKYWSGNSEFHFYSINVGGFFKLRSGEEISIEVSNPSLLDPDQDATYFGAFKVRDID
The assay is described as follows: SPR (BIACORE), purified antibody, 37°C. On the technique in general: Surface plasmon resonance follows binding to a sensor surface in real time, without labels.

Assay [3] concerns the target T3, penta-his-tagged monkey (Macaca fascicularis) RANKL (Macaca fascicularis, UniProt O14788 125-317 (human entry)).
T3 construct: also called his-mfRANKL; mfRANKL; not shown: penta-his tag
T3 chain: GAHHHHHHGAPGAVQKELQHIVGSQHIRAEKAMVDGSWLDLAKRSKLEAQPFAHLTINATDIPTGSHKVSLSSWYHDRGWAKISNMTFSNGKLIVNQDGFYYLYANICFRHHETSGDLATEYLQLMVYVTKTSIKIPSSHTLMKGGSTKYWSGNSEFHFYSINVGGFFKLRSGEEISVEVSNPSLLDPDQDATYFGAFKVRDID
The assay is described as follows: competition ELISA: 150 pM his-mfRANKL pre-mixed with antibody, free RANKL detected on hRANK-hFc plate. The protocol: as §1

In assay [4] the target is T2, human RANKL (receptor activator of …). Put plainly: cell-based or functional assay.
The target is the same in assay [5]. The assay is described as follows: SPR (BIACORE), purified antibody, 25°C.
The target is the same in assay [6]. The assay is described as follows: SPR (BIACORE 2000), antibody captured on anti-hFc, hRANKL injected. The method, then: Equilibrium dissociation constants (KD values) for antigen binding to the selected antibodies generated by hybridoma cell lines described above were determined by surface kinetics in a real-time biosensor surface plasmon resonance assay (BIACORE™ 2000). Each selected antibody was captured on a goat anti-mouse IgG polyclonal antibody surface created through direct chemical coupling to a BIACORE™ chip to form a captured antibody surface.
Each selected antibody was captured on a goat anti-hFc polyclonal antibody (Jackson Immuno Research Lab) surface created through direct chemical coupling to a BIACORE™ chip to form a captured antibody surface (Table 2).

Consider 15 molecules from patent US20120114665A1 (Regeneron, published 2012).

What is called IC50 is the concentration at which inhibition is half-maximal. For orientation: Kd means a measure of binding affinity in units of concentration.

B1: H4H002P (antibody, V domains shown)
VH: QVQLVESGGGVVQPGRSLRLSCAASGFTFTGYGMHWVRQAPDKGLEWVAVISYDGTNKYYVDSVKGRFTISRDNSQNTLYLQMNSLRAEDTAVYYCAKCLSGTYWGYGMDVWGQGTTVTVS
VL: DIQMTQSPSTLSASVGDRVTITCRASRSINSWLAWYQQKPGKAPKLLIYKASSLESGVPSRFSGSGSGTEFTLTISSLQPDDFASYYCQQYNNYSWTFGQGTKVEIK
notes: Purified antibody from clone 1F8
For the molecule B1, the results for the IC50 in assay [1] and in assay [3] were 165 pM and 1360 pM, respectively. Further, the dissociation constant (Kd) in assay [2] amounted to 53.1 pM; in assay [5], 262 pM. Also, in assay [4], the “IC50, hRANKL-inducible luciferase activity in HK293/RANK/NFκB-luc-eGFP cells” value (shortened to “IC50 … in HK293/RANK/NFκB-luc-eGFP cells”) is 214 pM.

B2: 2H10 (antibody, V domains shown)
VH: QVQLVESGGGVVQPGRSLRLSCAASGFTFSGYGIHWVRQAPDKGLEWVAVISYDGTNKYYGDSVKGRFTISRDNTKNTLYLQMNSLRTEDTAVYYCAKSLSGTYWGYGMDVWGQGTTVTVSS
VL: AIQMTQSPSTLSASVGDRVTITCRASQNIGNWLAWYQQKPGKAPKLLIYKASSLQNGVPSRFSGSGSGTEFTLTISSLQPDDFATYYCQRYNSYSWTFGQGTKVEIK
notes: From direct isolation of splenocytes; captured on anti-hFc; also called H4H009N
For the molecule B2, in assay [6], the Kd was found to be 15.8 pM.

B3: 2H12 (antibody, V domains shown)
VH: QVQLVQSGGGVVQPGRSLRLSCAASGFTFSGYGMHWVRQAPGKGLDWVTVISYDGSNKHYADSVKGRFTISRDNSKNTLYLQMSSLGPEDTAVYYCAKSLSGTYWGYGMDVWGQGTTVTVSS
VL: AIQMTQSPSTLSASVGDRVTITCRASQNISSWLAWYQQKPGKAPKLLIYKASSLESGVPSRFSGSGSGTEFTLTVSSLQPDDFATYYCQQYNRYSWTFGQGTKVEIK
notes: From direct isolation of splenocytes; captured on anti-hFc; also called H4H010N
B3 displayed a Kd in assay [6] of 33.1 pM.

B4: H4H007P (antibody, V domains shown)
VH: QVQLVESGGGVVQPGRSLRLSCAASGFTFSGYGMHWVRQAPGMGLEWVAVISYDGINKYYADSVKGRFTISRDNSKNTLFLQMNSLRAEDTALYYCAKCLSGTYWGYGMDVWGQGTTVTVS
VL: DIQMTQSPSTLSASVGDRVTITCRASQSISSWLAWYQLKPGKAPKLLIYKASSLESGVPSRFGGSGSGTEFTLTISSLQPDDFATYYCQHYNSYSWTFGQGTKVEIK
notes: Purified antibody from clone 2E12
As to B4, the IC50 in assay [1] stood at 335 pM; in assay [3] it was 2760 pM. In addition, the Kd in assay [2] was found to be 57.8 pM; in assay [5] it was 335 pM. Further, the “IC50 … in HK293/RANK/NFκB-luc-eGFP cells” value in assay [4] was determined as 452 pM.

B5: H4H006G (antibody, V domains shown)
VH: QVQLVESGGGVVQPGRSLRLSCAASGFTFGGYGMHWVRQAPGKGLEWVAVISYDGNNKYYADSVKGRFTISRDNSKNTLYLQMNSLRAEDTAVYYCAKCLSGTYWGYGMDGWGQGTTVTVS
VL: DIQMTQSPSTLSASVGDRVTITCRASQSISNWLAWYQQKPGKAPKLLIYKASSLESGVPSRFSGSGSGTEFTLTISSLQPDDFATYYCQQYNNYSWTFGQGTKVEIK
notes: Purified antibody from clone 2E11
Consider B5, for which the IC50 was 195 pM in assay [1] and 1240 pM in assay [3]. In addition, the values for the dissociation constant (Kd) in assay [2] and in assay [5] were 41.5 pM and 265 pM, respectively. Further, in assay [4], the “IC50 … in HK293/RANK/NFκB-luc-eGFP cells” value is 171 pM.

B6: H4H005G (antibody, V domains shown)
VH: QVQLVESGGGVVQPGRSLRLSCAASGFTFSGYGMHWVRQAPGKGLEWVAVISYDGINKYYADSVKGRFTISRDNSKNTLYLQMNSLRAEDTAVYYCAKCLSGSYWGFGMDVWGQGTTVTVS
VL: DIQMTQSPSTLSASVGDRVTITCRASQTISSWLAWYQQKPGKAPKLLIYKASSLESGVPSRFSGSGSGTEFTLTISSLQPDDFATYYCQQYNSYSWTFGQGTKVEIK
notes: Purified antibody from clone 2E10
Turning to B6, the IC50 in assay [1] turned out to be 3140 pM; in assay [3] it was 9580 pM. The equilibrium dissociation constant (Kd) was 24.1 pM in assay [2] and 76.2 pM in assay [5]. In addition, the “IC50 … in HK293/RANK/NFκB-luc-eGFP cells” value in assay [4] was 1060 pM.

B7: 2E11 (antibody, V domains shown)
VH: QVQLVQSGGGVVQPGRSLRLSCAASGFTFGGYGMHWVRQAPDKGLEWVAVISYDGNNKYYVDSVKGRFTISRDNSKNMLYLQMNSLRAEDTAVYYCAKCLSGTYWGYGMDGWGQGTTVTVSS
VL: DIQMTQSPSTLSASVGDRVTITCRASQSISNWLAWYQQKPGKAPKLLIYKASNLQSGVPSRFSGSGSGTEFTLTISSLQPDDFATYYCQQYNNYSWTFGQGTKVEIK
notes: From direct isolation of splenocytes; captured on anti-hFc; also called H4H006N
In assay [6], B7 gave a Kd of 16 pM.

B8: 2E12 (antibody, V domains shown)
VH: QVQLVQSGGGVVQPGRSLRLSCAASGFTFSGYGMHWVRQAPGMGLEWVAVISYDGINKYYADSVKGRFTISRDNSKNTLFLQMNSLRAEDTALYYCAKCLSGTYWGYGMDVWGQGTTVTVSS
VL: AIQMTQSPSTLSASVGDRVTITCRASQSISSWLAWYQLKPGKAPKLLIYKASSLESGVPSRFGGSGSGTEFTLTISSLQPDDFATYYCQHYNSYSWTFGQGTKVEIK
notes: From direct isolation of splenocytes; captured on anti-hFc; also called H4H007N
In turn, B8 registered a Kd in assay [6] of 95.7 pM.

B9: 2E10 (antibody, V domains shown)
VH: QVQLVQSGGGVVHPGRSLTLSCAASGFTFSGYGMHWVRQAPGKGLEWVAVISYDGINKYYADSVKGRFTISRDNSKNTLYLQMNSLRAEDTAIYYCAKCLSGSYWGFGMDVWGQGTTVTVSS
VL: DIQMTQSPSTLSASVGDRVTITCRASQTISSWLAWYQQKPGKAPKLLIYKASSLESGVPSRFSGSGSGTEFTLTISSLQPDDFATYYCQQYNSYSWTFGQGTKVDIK
notes: From direct isolation of splenocytes; captured on anti-hFc; also called H4H005N
On to B9, for which the Kd in assay [6] is 17.2 pM.

B10: 2G10 (antibody, V domains shown)
VH: QVQLVQSGGGVVQPGRSLRLSCAASGFTFSGFGMHWVRQAPGKGLEWVAIISYDGRNKYYADSVKGRFTISRDNSKNTLYLQMNSLRAEDTAVYYCAKSLSGTYWGYGMDVWGQGTTVTVSS
VL: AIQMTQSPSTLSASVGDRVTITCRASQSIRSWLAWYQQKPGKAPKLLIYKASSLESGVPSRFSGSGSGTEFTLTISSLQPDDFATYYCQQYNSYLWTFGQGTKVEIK
notes: From direct isolation of splenocytes; captured on anti-hFc; also called H4H008N
Consider B10, for which binding in assay [6] was put at a Kd of 28 pM.

B11: H4H009G (antibody, V domains shown)
VH: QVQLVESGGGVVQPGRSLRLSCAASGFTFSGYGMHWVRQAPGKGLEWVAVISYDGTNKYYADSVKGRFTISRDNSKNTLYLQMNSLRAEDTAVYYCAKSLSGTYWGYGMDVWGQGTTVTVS
VL: DIQMTQSPSTLSASVGDRVTITCRASQNIGNWLAWYQQKPGKAPKLLIYKASSLESGVPSRFSGSGSGTEFTLTISSLQPDDFATYYCQRYNSYSWTFGQGTKVEIK
notes: Purified antibody from clone 2H10
For the molecule B11, the IC50 in assay [1] was found to be 65 pM; in assay [3], 875 pM. Moreover, the Kd was found to be 42.4 pM in assay [2] and 198 pM in assay [5]. Besides, the “IC50 … in HK293/RANK/NFκB-luc-eGFP cells” value in assay [4] was 102 pM.

B12: 1F8 (antibody, V domains shown)
VH: QVQLVQSGGGVVQPGRSLRLSCAASGFTFTGYGMHWVRQAPDKGLEWVAVISYDGTNKYYVDSVKGRFTISRDNSQNTLYLQMNSLRAEDTAVYYCAKCLSGTYWGYGMDVWGQGTTVTVSS
VL: AIQMTQSPSTLSASVGDRVTITCRASRSINSWLAWYQQKPGKAPKLLIYKASSLESGVPSRFSGSGSGTEFTLTISSLQPDDFASYYCQQYNNYSWTFGQGTKVEIK
notes: From direct isolation of splenocytes; captured on anti-hFc; also called H4H002N
B12 gave a Kd in assay [6] of 7.85 pM.

B13: H4H006P (antibody, V domains shown)
VH: QVQLVESGGGVVQPGRSLRLSCAASGFTFGGYGMHWVRQAPDKGLEWVAVISYDGNNKYYVDSVKGRFTISRDNSKNMLYLQMNSLRAEDTAVYYCAKCLSGTYWGYGMDGWGQGTTVTVS
VL: DIQMTQSPSTLSASVGDRVTITCRASQSISNWLAWYQQKPGKAPKLLIYKASNLQSGVPSRFSGSGSGTEFTLTISSLQPDDFATYYCQQYNNYSWTFGQGTKVEIK
notes: as for B5
Consider B13, for which the IC50 in assay [1] worked out at 85 pM; in assay [3] it was 420 pM. Besides, the Kd in assay [2] is 44 pM; in assay [5], 172 pM. Moreover, the “IC50 … in HK293/RANK/NFκB-luc-eGFP cells” value in assay [4] amounted to 80 pM.

B14: H4H010P (antibody, V domains shown)
VH: QVQLVESGGGVVQPGRSLRLSCAASGFTFSGYGMHWVRQAPGKGLDWVTVISYDGSNKHYADSVKGRFTISRDNSKNTLYLQMSSLGPEDTAVYYCAKSLSGTYWGYGMDVWGQGTTVTVS
VL: DIQMTQSPSTLSASVGDRVTITCRASQNISSWLAWYQQKPGKAPKLLIYKASSLESGVPSRFSGSGSGTEFTLTVSSLQPDDFATYYCQQYNRYSWTFGQGTKVEIK
notes: Purified antibody from clone 2H12
Regarding B14, the IC50 in assay [1] turned out to be 45 pM; in assay [3], 150 pM. Moreover, the Kd worked out at 77.9 pM in assay [2] and 69.7 pM in assay [5]. Further, the “IC50 … in HK293/RANK/NFκB-luc-eGFP cells” value in assay [4] was 51 pM.

B15: H4H005P (antibody, V domains shown)
VH: QVQLVESGGGVVHPGRSLTLSCAASGFTFSGYGMHWVRQAPGKGLEWVAVISYDGINKYYADSVKGRFTISRDNSKNTLYLQMNSLRAEDTAIYYCAKCLSGSYWGFGMDVWGQGTTVTVS
VL: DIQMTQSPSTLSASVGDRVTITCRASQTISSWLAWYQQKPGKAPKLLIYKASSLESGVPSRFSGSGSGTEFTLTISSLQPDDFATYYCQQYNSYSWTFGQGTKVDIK
notes: as for B6
Regarding B15, the IC50 was determined as 1160 pM in assay [1] and 4320 pM in assay [3]. Also, the values for the Kd in assay [2] and in assay [5] were 45.3 pM and 601 pM, respectively. For the same molecule, the “IC50 … in HK293/RANK/NFκB-luc-eGFP cells” value in assay [4] came to 1170 pM.
